The record followed here is patent EP1988168A1 (Max-Planck-Gesellschaft zur Förderung der Wissenschaften …, dated 2008).

B1: Syn7002-RbcL (enzyme, Synechococcus sp. PCC7002, UniProt Q44176 1-470, looked up)
chain: MQTKSAGFNAGVQDYRLTYYTPDYTPKDTDLLACFRMTPQPGVPPEECAAAVAAESSTGTWTTVWTDGLTDLDRYKGRCYNVEPVPGEDNQYFCFVAYPLDLFEEGSVTNVLTSLVGNVFGFKALRALRLEDIRFPVALIKTYQGPPHGITVERDLLNKYGRPLLGCTIKPKLGLSAKNYGRAVYECLRGGLDFTKDDENINSQPFMRWRDRFLFVQEAIEKSQAETNEVKGHYLNVTAGTCEEMLKRAEFAKEIGTPIIMHDFLTGGFTANTTLAKWCRDNGVLLHIHRAMHAVIDRQKNHGIHFRVLAKCLRLSGGDHLHSGTVVGKLEGDRAATLGFVDLMREDYVEEDRSRGVFFTQDYASLPGTMPVASGGIHVWHMPALVEIFGDDSCLQFGGGTLGHPWGNAPGATANRVALEACVQARNEGRSLAREGNDVLREAGKWSPELAAALDLWKEIKFEFDTVDTL
notes: Stood in the assays as monomers, dimers, assembly intermediates or RbcL8 core complex, depending on the experiment; also called wildtype RbcL; RbcL8
B3: Syn7002-RbcL peptide 2, KEIKFEFDTVD (peptide)
peptide: KEIKFEFDTVD
B4: AnaCA-RbcX (other, Anabaena sp. CA, UniProt Q44212 1-135, looked up)
chain: MNLKQIAKDTAKTLQSYLTYQALRTVLAQLGETNPPLALWLHNFSAGKVQDGEKYIEELFLEKPDLALRIMTVREHIAEEIAEFLPEMVVTGIQQANMEKRRQHLERMTQVSLSHPSPESEQQQFSDPDWDNLAS
notes: also called RbcX from Anabaena sp; CA
B6: Syn7002-RbcX (other, Synechococcus sp. PCC7002, UniProt Q44177 1-134, looked up)
chain: MEFKKVAKETAITLQSYLTYQAVRLISQQLSETNPGQAIWLGEFSKRHPIQESDLYLEAMMLENKELVLRILTVRENLAEGVLEFLPEMVLSQIKQSNGNHRRSLLERLTQVDSSSTDQTEPNPGESDTSEDSE
notes: Assembly chaperone; also called RbcX of Synechococcus sp; PCC7002; non-tagged Syn7002-RbcX

The target of test [1] is T1, GroEL (E. coli, UniProt P0A6F5 2-548).
T1 construct: also called E. coli GroEL; chaperonin
T1 sequence (P0A6F5 2-548 limits assumed): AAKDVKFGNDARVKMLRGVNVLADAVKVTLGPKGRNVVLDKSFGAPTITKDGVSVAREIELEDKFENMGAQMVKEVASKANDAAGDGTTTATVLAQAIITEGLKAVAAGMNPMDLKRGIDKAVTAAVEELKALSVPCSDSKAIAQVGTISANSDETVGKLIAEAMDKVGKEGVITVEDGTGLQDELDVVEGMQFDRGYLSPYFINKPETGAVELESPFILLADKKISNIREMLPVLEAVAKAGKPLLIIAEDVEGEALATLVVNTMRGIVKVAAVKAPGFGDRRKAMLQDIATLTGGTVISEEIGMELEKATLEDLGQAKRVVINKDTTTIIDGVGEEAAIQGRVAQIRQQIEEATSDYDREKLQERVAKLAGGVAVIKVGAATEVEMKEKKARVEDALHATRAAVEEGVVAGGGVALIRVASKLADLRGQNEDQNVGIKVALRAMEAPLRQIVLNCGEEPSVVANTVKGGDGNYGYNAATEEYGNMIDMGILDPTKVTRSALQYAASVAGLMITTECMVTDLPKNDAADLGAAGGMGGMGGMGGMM
As to the kind of experiment: in vitro translation, Native-PAGE, autoradiography.

Test [2] deals with B1. As to the kind of experiment: co-immunoprecipitation with anti-FLAG antibody from E. coli extract.
Test [3] deals with B4. As to the kind of experiment: isothermal titration calorimetry, peptide titrated into RbcX dimer at 22°C. (ITC needs no label: the signal is the heat of the interaction.)
Test [4] has as its target B6. The description is as above.
Test [5] deals with Syn7002-RbcL(1-459) (Synechococcus sp. PCC7002, UniProt Q44176 1-459). As to the kind of experiment: coexpression in E. coli, Native-PAGE and immunoblot. A general note: A western blot detects proteins with antibodies after separation by electrophoresis.
Test [6] concerns the target T2, Syn7002-RbcL(F462A, F464A) (Synechococcus sp. PCC7002, UniProt Q44176 1-470).
T2 construct: also called RbcL(F462A/F464A) double mutant
Described as above.

Test [7] concerns the target B3. As to the kind of experiment: comparison of the ITC affinities for the C-terminal RbcL peptide.
Test [8] has as its target T2, Syn7002-RbcL(F462A, F464A). As to the kind of experiment: pulse-chase in vitro translation, Bis-Tris Native-PAGE, autoradiography.
Test [9] concerns the target B1. As to the kind of experiment: displacement of RbcL from anti-FLAG beads carrying the Syn7002-RbcL/Syn7002-RbcXFLAG complex, 15 min at room temperature, immunoblot; competitor Syn7002-RbcXFLAG.

In the case of B1, in test [1], the binding result is given as “binds”.

B2: Syn7002-RbcXFLAG (other, Synechococcus sp. PCC7002)
chain: MDYKDDDDKAGMEFKKVAKETAITLQSYLTYQAVRLISQQLSETNPGQAIWLGEFSKRHPIQESDLYLEAMMLENKELVLRILTVRENLAEGVLEFLPEMVLSQIKQSNGNHRRSLLERLTQVDSSSTDQTEPNPGESDTSEDSE
notes: Coexpressed with RbcL in E. coli and pulled down with anti-FLAG M2 beads; also called N-terminally FLAG-tagged wildtype RbcX; FLAG-tagged Syn7002-RbcX
With B2, in test [2], the binding result was “binds”.
The term Kd denotes the free concentration of one partner at which half of the binding sites on the other are occupied at equilibrium, for simple one-to-one binding. As for B3, the values for the Kd in test [3] and in test [4] were approximately 5 µM and approximately 160 µM, respectively.
Consider B4, for which the binding result in [5] and in test [6] was “no binding” in each case. Further, the “fold higher affinity (against Syn7002-RbcX)” value in test [7] is 30 fold.

B5: AnaCA-RbcXFLAG (other, Anabaena sp. CA)
chain: MDYKDDDDKAGMNLKQIAKDTAKTLQSYLTYQALRTVLAQLGETNPPLALWLHNFSAGKVQDGEKYIEELFLEKPDLALRIMTVREHIAEEIAEFLPEMVVTGIQQANMEKRRQHLERMTQVSLSHPSPESEQQQFSDPDWDNLAS
notes: also called FLAG-tagged AnaCA-RbcX
B5: in test [8], the binding result is on record as “no binding (tested: 40 µM RbcX)”.
In general, IC50 refers to the concentration needed to halve the response being measured. Low values mean greater potency in that assay, high ones weaker potency in that assay. Regarding B6, the IC50 in test [9] is approximately 1000 nM.

B7: Syn7002-RbcL peptide 1, EIKFEFD (peptide)
peptide: EIKFEFD
notes: also called peptide EIKFEFD
In the case of B7, the Kd was approximately 60 µM in [3] and approximately 230 µM in test [4].
